Numbered stars: 1 amine (or outer) side, 2 acyl side, 3 side chain; on linkers, the order of the positions; unused ones are H or OH. Bridge positions count the residues as written; N and C are the ends. Square brackets hold non-standard residues; d marks the D form. * marks the point of attachment. C20 diacid = O=C(O)CCCCCCCCCCCCCCCCCCC(=O)*; γGlu = O=C(O)[C@H](CCC(=O)[*:2])N[*:1]; Hyp = O=C(O)[C@@H]1C[C@@H](O)CN1; NMeI = CC[C@H](C)[C@H](NC)C(=O)O; Aad = N[C@@H](CCCC(=O)O)C(=O)O; Orn = NCCC[C@H](N)C(=O)O; Sar = CNCC(=O)O
Assays:
[1] = target: recombinant human calcitonin receptor (hCT-R) (human), P30988; experiment: cell-based or functional assay
[2] = target: recombinant human amylin 3 receptor (hAMYR3) (human), P30988; experiment: cell-based or functional assay
Sequence of recombinant human amylin 3 receptor (hAMYR3) (human), P30988 (P30988 25-474, chain 1 of 2): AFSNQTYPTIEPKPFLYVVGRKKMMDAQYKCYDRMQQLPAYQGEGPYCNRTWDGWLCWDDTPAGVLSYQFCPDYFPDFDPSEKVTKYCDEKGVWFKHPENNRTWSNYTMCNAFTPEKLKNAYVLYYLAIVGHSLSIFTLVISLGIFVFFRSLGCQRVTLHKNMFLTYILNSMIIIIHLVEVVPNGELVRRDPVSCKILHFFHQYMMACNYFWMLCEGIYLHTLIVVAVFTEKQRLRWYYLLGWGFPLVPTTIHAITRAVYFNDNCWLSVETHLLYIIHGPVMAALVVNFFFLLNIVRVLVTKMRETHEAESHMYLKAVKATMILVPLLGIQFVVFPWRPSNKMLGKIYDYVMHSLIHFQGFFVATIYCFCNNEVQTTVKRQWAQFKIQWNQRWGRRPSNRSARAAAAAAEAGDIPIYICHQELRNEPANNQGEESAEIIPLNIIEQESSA
Sequence of recombinant human amylin 3 receptor (hAMYR3) (human), P30988 (O60896 24-148, chain 2 of 2, further chain): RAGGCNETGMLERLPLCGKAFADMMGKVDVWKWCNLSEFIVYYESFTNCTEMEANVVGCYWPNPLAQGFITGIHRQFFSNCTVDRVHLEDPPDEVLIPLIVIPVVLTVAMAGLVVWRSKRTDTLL

Sequence of recombinant human calcitonin receptor (hCT-R) (human), P30988 (P30988 25-474): as the sequence (P30988 25-474, chain 1 of 2) above

Binder	hCT-R EC50 [nM] (cAMP formation, 1321N1 cells expressing hCT-R) [1]	hAMYR3 EC50 [nM] (cAMP formation, 1321N1 cells expressing hAMYR3) [2]
{C20 diacid-γGlu}-RDGTATKATERLA[Aad]FLQRAAF[Sar]A[NMeI]LSSTEVGSNT[Hyp]-NH2 (lactam 2-7; SMILES CC[C@H](C)[C@@H](C(=O)N[C@@H](CC(C)C)C(=O)N[C@@H](CO)C(=O)N[C@@H](CO)C(=O)N[C@H](C(=O)N[C@@H](CCC(=O)O)C(=O)N[C@H](C(=O)NCC(=O)N[C@@H](CO)C(=O)N[C@@H](CC(N)=O)C(=O)N[C@H](C(=O)N1C[C@H](O)C[C@H]1C(N)=O)[C@@H](C)O)C(C)C)[C@@H](C)O)N(C)C(=O)[C@H](C)NC(=O)CN(C)C(=O)[C@H](Cc1ccccc1)NC(=O)[C@H](C)NC(=O)[C@H](C)NC(=O)[C@H](CCCNC(=N)N)NC(=O)[C@H](CCC(N)=O)NC(=O)[C@H](CC(C)C)NC(=O)[C@H](Cc1ccccc1)NC(=O)[C@H](CCCC(=O)O)NC(=O)[C@H](C)NC(=O)[C@H](CC(C)C)NC(=O)[C@H](CCCNC(=N)N)NC(=O)[C@H](CCC(=O)O)NC(=O)[C@@H](NC(=O)[C@H](C)NC(=O)[C@@H]1CCCCNC(=O)C[C@H](NC(=O)[C@H](CCCNC(=N)N)NC(=O)CC[C@H](NC(=O)CCCCCCCCCCCCCCCCCCC(=O)O)C(=O)O)C(=O)NCC(=O)N[C@@H]([C@@H](C)O)C(=O)N[C@@H](C)C(=O)N[C@@H]([C@@H](C)O)C(=O)N1)[C@@H](C)O) [Compound 31]	0.227 nM	0.066 nM
{C20 diacid-γGlu}-EDGTATKATERLA[Aad]FLQRSSF[Sar]A[NMeI]PSSTEVGSNT[Hyp]-NH2 (lactam 2-7; SMILES CC[C@H](C)[C@@H](C(=O)N1CCC[C@H]1C(=O)N[C@@H](CO)C(=O)N[C@@H](CO)C(=O)N[C@H](C(=O)N[C@@H](CCC(=O)O)C(=O)N[C@H](C(=O)NCC(=O)N[C@@H](CO)C(=O)N[C@@H](CC(N)=O)C(=O)N[C@H](C(=O)N1C[C@H](O)C[C@H]1C(N)=O)[C@@H](C)O)C(C)C)[C@@H](C)O)N(C)C(=O)[C@H](C)NC(=O)CN(C)C(=O)[C@H](Cc1ccccc1)NC(=O)[C@H](CO)NC(=O)[C@H](CO)NC(=O)[C@H](CCCNC(=N)N)NC(=O)[C@H](CCC(N)=O)NC(=O)[C@H](CC(C)C)NC(=O)[C@H](Cc1ccccc1)NC(=O)[C@H](CCCC(=O)O)NC(=O)[C@H](C)NC(=O)[C@H](CC(C)C)NC(=O)[C@H](CCCNC(=N)N)NC(=O)[C@H](CCC(=O)O)NC(=O)[C@@H](NC(=O)[C@H](C)NC(=O)[C@@H]1CCCCNC(=O)C[C@H](NC(=O)[C@H](CCC(=O)O)NC(=O)CC[C@H](NC(=O)CCCCCCCCCCCCCCCCCCC(=O)O)C(=O)O)C(=O)NCC(=O)N[C@@H]([C@@H](C)O)C(=O)N[C@@H](C)C(=O)N[C@@H]([C@@H](C)O)C(=O)N1)[C@@H](C)O) [Compound 30]	0.232 nM	0.122 nM
{C20 diacid-γGlu-γGlu}-RDGTAT[Orn]ATERLAHFLQRSSF[Sar]A[NMeI]LSSTEVGSNT[Hyp]-NH2 (lactam 2-7; SMILES CC[C@H](C)[C@@H](C(=O)N[C@@H](CC(C)C)C(=O)N[C@@H](CO)C(=O)N[C@@H](CO)C(=O)N[C@H](C(=O)N[C@@H](CCC(=O)O)C(=O)N[C@H](C(=O)NCC(=O)N[C@@H](CO)C(=O)N[C@@H](CC(N)=O)C(=O)N[C@H](C(=O)N1C[C@H](O)C[C@H]1C(N)=O)[C@@H](C)O)C(C)C)[C@@H](C)O)N(C)C(=O)[C@H](C)NC(=O)CN(C)C(=O)[C@H](Cc1ccccc1)NC(=O)[C@H](CO)NC(=O)[C@H](CO)NC(=O)[C@H](CCCNC(=N)N)NC(=O)[C@H](CCC(N)=O)NC(=O)[C@H](CC(C)C)NC(=O)[C@H](Cc1ccccc1)NC(=O)[C@H](Cc1c[nH]cn1)NC(=O)[C@H](C)NC(=O)[C@H](CC(C)C)NC(=O)[C@H](CCCNC(=N)N)NC(=O)[C@H](CCC(=O)O)NC(=O)[C@@H](NC(=O)[C@H](C)NC(=O)[C@@H]1CCCNC(=O)C[C@H](NC(=O)[C@H](CCCNC(=N)N)NC(=O)CC[C@H](NC(=O)CC[C@H](NC(=O)CCCCCCCCCCCCCCCCCCC(=O)O)C(=O)O)C(=O)O)C(=O)NCC(=O)N[C@@H]([C@@H](C)O)C(=O)N[C@@H](C)C(=O)N[C@@H]([C@@H](C)O)C(=O)N1)[C@@H](C)O) [Compound 4]	0.16 nM	0.092 nM
{C20 diacid-γGlu}-RDPTATKATERLA[Aad]FLQRSSF[Sar]A[NMeI]LSSTEVGSNT[Hyp]-NH2 (lactam 2-7; SMILES CC[C@H](C)[C@@H](C(=O)N[C@@H](CC(C)C)C(=O)N[C@@H](CO)C(=O)N[C@@H](CO)C(=O)N[C@H](C(=O)N[C@@H](CCC(=O)O)C(=O)N[C@H](C(=O)NCC(=O)N[C@@H](CO)C(=O)N[C@@H](CC(N)=O)C(=O)N[C@H](C(=O)N1C[C@H](O)C[C@H]1C(N)=O)[C@@H](C)O)C(C)C)[C@@H](C)O)N(C)C(=O)[C@H](C)NC(=O)CN(C)C(=O)[C@H](Cc1ccccc1)NC(=O)[C@H](CO)NC(=O)[C@H](CO)NC(=O)[C@H](CCCNC(=N)N)NC(=O)[C@H](CCC(N)=O)NC(=O)[C@H](CC(C)C)NC(=O)[C@H](Cc1ccccc1)NC(=O)[C@H](CCCC(=O)O)NC(=O)[C@H](C)NC(=O)[C@H](CC(C)C)NC(=O)[C@H](CCCNC(=N)N)NC(=O)[C@H](CCC(=O)O)NC(=O)[C@@H](NC(=O)[C@H](C)NC(=O)[C@@H]1CCCCNC(=O)C[C@H](NC(=O)[C@H](CCCNC(=N)N)NC(=O)CC[C@H](NC(=O)CCCCCCCCCCCCCCCCCCC(=O)O)C(=O)O)C(=O)N2CCC[C@H]2C(=O)N[C@@H]([C@@H](C)O)C(=O)N[C@@H](C)C(=O)N[C@@H]([C@@H](C)O)C(=O)N1)[C@@H](C)O) [Compound 29]	1.07 nM	0.312 nM

Other lines, results leading:

hCT-R EC50 [nM] (cAMP formation, 1321N1 cells expressing hCT-R) [1]	hAMYR3 EC50 [nM] (cAMP formation, 1321N1 cells expressing hAMYR3) [2]	Binder
0.006 nM	0.005 nM	{C20 diacid-γGlu}-RDGTATKATERLA[Aad]FLQRGGF[Sar]A[NMeI]LSSTEVGSNT[Hyp]-NH2 (lactam 2-7; SMILES CC[C@H](C)[C@@H](C(=O)N[C@@H](CC(C)C)C(=O)N[C@@H](CO)C(=O)N[C@@H](CO)C(=O)N[C@H](C(=O)N[C@@H](CCC(=O)O)C(=O)N[C@H](C(=O)NCC(=O)N[C@@H](CO)C(=O)N[C@@H](CC(N)=O)C(=O)N[C@H](C(=O)N1C[C@H](O)C[C@H]1C(N)=O)[C@@H](C)O)C(C)C)[C@@H](C)O)N(C)C(=O)[C@H](C)NC(=O)CN(C)C(=O)[C@H](Cc1ccccc1)NC(=O)CNC(=O)CNC(=O)[C@H](CCCNC(=N)N)NC(=O)[C@H](CCC(N)=O)NC(=O)[C@H](CC(C)C)NC(=O)[C@H](Cc1ccccc1)NC(=O)[C@H](CCCC(=O)O)NC(=O)[C@H](C)NC(=O)[C@H](CC(C)C)NC(=O)[C@H](CCCNC(=N)N)NC(=O)[C@H](CCC(=O)O)NC(=O)[C@@H](NC(=O)[C@H](C)NC(=O)[C@@H]1CCCCNC(=O)C[C@H](NC(=O)[C@H](CCCNC(=N)N)NC(=O)CC[C@H](NC(=O)CCCCCCCCCCCCCCCCCCC(=O)O)C(=O)O)C(=O)NCC(=O)N[C@@H]([C@@H](C)O)C(=O)N[C@@H](C)C(=O)N[C@@H]([C@@H](C)O)C(=O)N1)[C@@H](C)O) [Compound 32]
0.206 nM	0.063 nM	{C20 diacid-γGlu}-RDGTATKATERLA[Aad]FLQRSSF[Sar]A[NMeI]PSSTEVGSNT[Hyp]-NH2 (lactam 2-7; SMILES CC[C@H](C)[C@@H](C(=O)N1CCC[C@H]1C(=O)N[C@@H](CO)C(=O)N[C@@H](CO)C(=O)N[C@H](C(=O)N[C@@H](CCC(=O)O)C(=O)N[C@H](C(=O)NCC(=O)N[C@@H](CO)C(=O)N[C@@H](CC(N)=O)C(=O)N[C@H](C(=O)N1C[C@H](O)C[C@H]1C(N)=O)[C@@H](C)O)C(C)C)[C@@H](C)O)N(C)C(=O)[C@H](C)NC(=O)CN(C)C(=O)[C@H](Cc1ccccc1)NC(=O)[C@H](CO)NC(=O)[C@H](CO)NC(=O)[C@H](CCCNC(=N)N)NC(=O)[C@H](CCC(N)=O)NC(=O)[C@H](CC(C)C)NC(=O)[C@H](Cc1ccccc1)NC(=O)[C@H](CCCC(=O)O)NC(=O)[C@H](C)NC(=O)[C@H](CC(C)C)NC(=O)[C@H](CCCNC(=N)N)NC(=O)[C@H](CCC(=O)O)NC(=O)[C@@H](NC(=O)[C@H](C)NC(=O)[C@@H]1CCCCNC(=O)C[C@H](NC(=O)[C@H](CCCNC(=N)N)NC(=O)CC[C@H](NC(=O)CCCCCCCCCCCCCCCCCCC(=O)O)C(=O)O)C(=O)NCC(=O)N[C@@H]([C@@H](C)O)C(=O)N[C@@H](C)C(=O)N[C@@H]([C@@H](C)O)C(=O)N1)[C@@H](C)O) [Compound 34]
0.019 nM	0.009 nM	{C20 diacid-γGlu}-RDGTATKATERLA[Aad]FLQRANF[Sar]A[NMeI]LSSTEVGSNT[Hyp]-NH2 (lactam 2-7; SMILES CC[C@H](C)[C@@H](C(=O)N[C@@H](CC(C)C)C(=O)N[C@@H](CO)C(=O)N[C@@H](CO)C(=O)N[C@H](C(=O)N[C@@H](CCC(=O)O)C(=O)N[C@H](C(=O)NCC(=O)N[C@@H](CO)C(=O)N[C@@H](CC(N)=O)C(=O)N[C@H](C(=O)N1C[C@H](O)C[C@H]1C(N)=O)[C@@H](C)O)C(C)C)[C@@H](C)O)N(C)C(=O)[C@H](C)NC(=O)CN(C)C(=O)[C@H](Cc1ccccc1)NC(=O)[C@H](CC(N)=O)NC(=O)[C@H](C)NC(=O)[C@H](CCCNC(=N)N)NC(=O)[C@H](CCC(N)=O)NC(=O)[C@H](CC(C)C)NC(=O)[C@H](Cc1ccccc1)NC(=O)[C@H](CCCC(=O)O)NC(=O)[C@H](C)NC(=O)[C@H](CC(C)C)NC(=O)[C@H](CCCNC(=N)N)NC(=O)[C@H](CCC(=O)O)NC(=O)[C@@H](NC(=O)[C@H](C)NC(=O)[C@@H]1CCCCNC(=O)C[C@H](NC(=O)[C@H](CCCNC(=N)N)NC(=O)CC[C@H](NC(=O)CCCCCCCCCCCCCCCCCCC(=O)O)C(=O)O)C(=O)NCC(=O)N[C@@H]([C@@H](C)O)C(=O)N[C@@H](C)C(=O)N[C@@H]([C@@H](C)O)C(=O)N1)[C@@H](C)O) [Compound 33]
0.066 nM	0.028 nM	{C20 diacid-γGlu}-RDGTATKATERLA[Aad]FLQRSSF[Sar]A[NMeI]LSSTEVGSNT[Hyp]-NH2 (lactam 2-7) [Compound 35]

— US20180071366A1
